19 molecules from US20250320282A1 (MABYLON, published 2025) can be followed below.

B1: MY006-2F8 Fab Hg (Fab, V domains shown)
VH: EVQLVESGGGLVQPGGSLRLSCAASGFIFSDYNMNWVRQAPGKGLEWVSSITRSSRTIYYADSVKGRFTISRDNAKNSLYLQMNSLRDEDTAVYYCAREDFDVSTGPYYMDVWGKGTTVTVSS
VL: EIVLTQSPGTLSLSPGERATLSCRASQSVSNMFLVWYQQKPGQAPRLLMYGASTRATDIPDRFSGSGSGTDFTLTISRLEPEDFAVYYCQQNGNSPYTFGQGTKLEIK
notes: Germlined variant, IgG1-Fab format; also called 2F8 Hg
B2: MY006-2F8 Fab Hg Lg (Fab, V domains shown)
VH: EVQLVESGGGLVQPGGSLRLSCAASGFIFSDYNMNWVRQAPGKGLEWVSSITRSSRTIYYADSVKGRFTISRDNAKNSLYLQMNSLRDEDTAVYYCAREDFDVSTGPYYMDVWGKGTTVTVSS
VL: EIVLTQSPGTLSLSPGERATLSCRASQSVSNMFLVWYQQKPGQAPRLLMYGASTRATGIPDRFSGSGSGTDFTLTISRLEPEDFAVYYCQQNGNSPYTFGQGTKLEIK
notes: Germlined variant, IgG1-Fab format
B3: MY006-2F8 Fab Lf (Fab, V domains shown)
VH: EVQLVESGGGLVKPGGSLRLSCAASGFIFSDYNMNWVRQAPGKGLEWVSSITRSSRTIYYADSVKGRFTISRDNAKNSLHLQMNSLRDADTAVYYCAREDFDVSTGPYYMDVWGNGTTVIVSS
VL: EIVLTQSPGTLSLSPGERATLSCRASQSVSNMFLVWYQQKPGQAPRLLIYGASTRATGIPDRFSGSGSGTDFTLTISRLEPEDFAVYYCQQNGNSPYTFGQGTKLEIK
notes: Germlined variant, IgG1-Fab format; also called 2F8 Lf
B4: MY006-7G6 Fab Hg Lg (Fab, V domains shown)
VH: QVQLVESGGGVVQPGRSLRLSCAASGIAFNDYTMHWVRRAPGKGLEWVAAISYGGTNKYYADSVKGRFTISRDSSKNTLYLQMNSLRAEDTAVYYCARDSGYRSLLHWGQGTLVTVSS
VL: EIVLTQSPLSLPVTPGEPASISCRSSQSLVHRNGYNYLDWYLQKPGQSPQLLIYMASKRASGVPDRFSGSGSGTDFTLKISRVEAEDVGVYYCMQALQTWTFGQGTKVEIK
notes: as for B2
B5: MY006-7G6 Fab Hf Lf (Fab, V domains shown)
VH: QVQLVESGGGVVQPGRSLRLSCAASGIAFNDYTMHWVRQAPGKGLEWVAAISYGGTNKYYADSVKGRFTISRDNSKNTLYLQMNSLRAEDTAVYYCARDSGYRSLLHWGQGTLVTVSS
VL: DIVMTQSPLSLPVTPGEPASISCRSSQSLVHRNGYNYLDWYLQKPGQSPQLLIYMASKRASGVPDRFSGSGSGTDFTLKISRVEAEDVGVYYCMQALQTWTFGQGTKVEIK
notes: as for B2
B6: MY006-7G6 Fab Hg Lf (Fab, V domains shown)
VH: QVQLVESGGGVVQPGRSLRLSCAASGIAFNDYTMHWVRRAPGKGLEWVAAISYGGTNKYYADSVKGRFTISRDSSKNTLYLQMNSLRAEDTAVYYCARDSGYRSLLHWGQGTLVTVSS
VL: DIVMTQSPLSLPVTPGEPASISCRSSQSLVHRNGYNYLDWYLQKPGQSPQLLIYMASKRASGVPDRFSGSGSGTDFTLKISRVEAEDVGVYYCMQALQTWTFGQGTKVEIK
notes: as for B2
B7: MY006-7G6 Fab Lf (Fab, V domains shown)
VH: QVQLVESGGGVVQPGRSLRLSCAASGIAFNDYTMHWVRRSPDKGLEWVAAISYGGTNKYYADSVKGRFTISRDSSKNTLFLQMDSLRVEDTAVYYCARDSGYRSLLHWGQGTLVTVSS
VL: DIVMTQSPLSLPVTPGEPASISCRSSQSLVHRNGYNYLDWYLQKPGQSPQLLIYMASKRASGVPDRFSGSGSGTDFTLKISRVEAEDVGVYYCMQALQTWTFGQGTKVEIK
notes: Germlined variant, IgG1-Fab format; also called 7G6 Lf
B8: MY006-7G6 Fab Hf (Fab, V domains shown)
VH: QVQLVESGGGVVQPGRSLRLSCAASGIAFNDYTMHWVRQAPGKGLEWVAAISYGGTNKYYADSVKGRFTISRDNSKNTLYLQMNSLRAEDTAVYYCARDSGYRSLLHWGQGTLVTVSS
VL: EIVLTQSPLSLPVTPGEPASISCRSSQSLVHRNGYNYLDWYLQKPGQSPQLLIYMASKRASGVPDRFSGSGSGTEFTLKISRVEAEDVGIYYCMQALQTWTFGQGTKVEVN
notes: Germlined variant, IgG1-Fab format; also called 7G6 Hf
B9: MY006-7G6 Fab Lg (Fab, V domains shown)
VH: QVQLVESGGGVVQPGRSLRLSCAASGIAFNDYTMHWVRRSPDKGLEWVAAISYGGTNKYYADSVKGRFTISRDSSKNTLFLQMDSLRVEDTAVYYCARDSGYRSLLHWGQGTLVTVSS
VL: EIVLTQSPLSLPVTPGEPASISCRSSQSLVHRNGYNYLDWYLQKPGQSPQLLIYMASKRASGVPDRFSGSGSGTDFTLKISRVEAEDVGVYYCMQALQTWTFGQGTKVEIK
notes: Germlined variant, IgG1-Fab format; also called 7G6 Lg
B10: MY006-7G6 Fab Hg (Fab, V domains shown)
VH: QVQLVESGGGVVQPGRSLRLSCAASGIAFNDYTMHWVRRAPGKGLEWVAAISYGGTNKYYADSVKGRFTISRDSSKNTLYLQMNSLRAEDTAVYYCARDSGYRSLLHWGQGTLVTVSS
VL: EIVLTQSPLSLPVTPGEPASISCRSSQSLVHRNGYNYLDWYLQKPGQSPQLLIYMASKRASGVPDRFSGSGSGTEFTLKISRVEAEDVGIYYCMQALQTWTFGQGTKVEVN
notes: Germlined variant, IgG1-Fab format; also called 7G6 Hg
B11: MY006-7G6 Fab Hf Lg (Fab, V domains shown)
VH: QVQLVESGGGVVQPGRSLRLSCAASGIAFNDYTMHWVRQAPGKGLEWVAAISYGGTNKYYADSVKGRFTISRDNSKNTLYLQMNSLRAEDTAVYYCARDSGYRSLLHWGQGTLVTVSS
VL: EIVLTQSPLSLPVTPGEPASISCRSSQSLVHRNGYNYLDWYLQKPGQSPQLLIYMASKRASGVPDRFSGSGSGTDFTLKISRVEAEDVGVYYCMQALQTWTFGQGTKVEIK
notes: Germlined variant, IgG1-Fab format; also called 7G6: Hf/Lg
B12: MY006-15E3 Fab Hg Lg (Fab, V domains shown)
VH: EVQLVESGGGLVQPGGSLRLSCAASGFKFSTFYMTWIRQAPGKGLEWVANIKQDGSEKDYLDSVRGRFTISRDNAKSSLYLQMNSLRAEDTAVYYCTRNGLQDSYSGDFFDHWGQGTLVTVSS
VL: QSVLTQPPSVSAAPGQKVTISCSGTGSNIGHNYVSWYQQLPGTAPKLLIFDNTKRPSGIPDRFSGSKSGSSATLGITGLQTGDEADYFCATWDADLSAVLFGGGTKLTVL
notes: as for B2
B13: MY006-15E3 Fab Hf (Fab, V domains shown)
VH: EVQLVESGGGLVQPGGSLRLSCAASGFKFSTFYMTWVRQAPGKGLEWVANIKQDGSEKDYLDSVRGRFTISRDNAKNSLYLQMNSLRAEDTAVYYCTRNGLQDSYSGDFFDHWGQGTLVTVSS
VL: QSVLTQPPSISAAPGQKVTISCSGTGSNIGHNYVSWYQQLPRTAPRLLIFDNTKRPSGIPDRFSGSKSGSSATLGITGLQTGDEAHYFCATWDADLSAVLFGGGTKLTVL
notes: Germlined variant, IgG1-Fab format; also called 15E3 Hf
B14: MY006-15E3 Fab Lf (Fab, V domains shown)
VH: EVQLVESGGALVQPGGSLRLSCAASGFKFSTFYMTWIRQAPGKGLEWVANIKQDGSEKDYLDSVRGRFNISRDNAKSVLYLQMNTLSADDTGVYYCTRNGLQDSYSGDFFDHWGQGILVTVSS
VL: QSVLTQPPSVSAAPGQKVTISCSGTGSNIGHNYVSWYQQLPGTAPKLLIYDNTKRPSGIPDRFSGSKSGTSATLGITGLQTGDEADYYCATWDADLSAVLFGGGTKLTVL
notes: Germlined variant, IgG1-Fab format; also called 15E3 Lf
B15: MY006-15E3 Fab Lg (Fab, V domains shown)
VH: EVQLVESGGALVQPGGSLRLSCAASGFKFSTFYMTWIRQAPGKGLEWVANIKQDGSEKDYLDSVRGRFNISRDNAKSVLYLQMNTLSADDTGVYYCTRNGLQDSYSGDFFDHWGQGILVTVSS
VL: QSVLTQPPSVSAAPGQKVTISCSGTGSNIGHNYVSWYQQLPGTAPKLLIFDNTKRPSGIPDRFSGSKSGSSATLGITGLQTGDEADYFCATWDADLSAVLFGGGTKLTVL
notes: Germlined variant, IgG1-Fab format; also called 15E3 Lg
B16: MY006-15E3 Fab Hg (Fab, V domains shown)
VH: EVQLVESGGGLVQPGGSLRLSCAASGFKFSTFYMTWIRQAPGKGLEWVANIKQDGSEKDYLDSVRGRFTISRDNAKSSLYLQMNSLRAEDTAVYYCTRNGLQDSYSGDFFDHWGQGTLVTVSS
VL: QSVLTQPPSISAAPGQKVTISCSGTGSNIGHNYVSWYQQLPRTAPRLLIFDNTKRPSGIPDRFSGSKSGSSATLGITGLQTGDEAHYFCATWDADLSAVLFGGGTKLTVL
notes: Germlined variant, IgG1-Fab format; also called 15E3 Hg
B17: MY006-15E3 Fab Hg Lf (Fab, V domains shown)
VH: EVQLVESGGGLVQPGGSLRLSCAASGFKFSTFYMTWIRQAPGKGLEWVANIKQDGSEKDYLDSVRGRFTISRDNAKSSLYLQMNSLRAEDTAVYYCTRNGLQDSYSGDFFDHWGQGTLVTVSS
VL: QSVLTQPPSVSAAPGQKVTISCSGTGSNIGHNYVSWYQQLPGTAPKLLIYDNTKRPSGIPDRFSGSKSGTSATLGITGLQTGDEADYYCATWDADLSAVLFGGGTKLTVL
notes: as for B2
B18: MY006-15E3 Fab Hf Lg (Fab, V domains shown)
VH: EVQLVESGGGLVQPGGSLRLSCAASGFKFSTFYMTWVRQAPGKGLEWVANIKQDGSEKDYLDSVRGRFTISRDNAKNSLYLQMNSLRAEDTAVYYCTRNGLQDSYSGDFFDHWGQGTLVTVSS
VL: QSVLTQPPSVSAAPGQKVTISCSGTGSNIGHNYVSWYQQLPGTAPKLLIFDNTKRPSGIPDRFSGSKSGSSATLGITGLQTGDEADYFCATWDADLSAVLFGGGTKLTVL
notes: Germlined variant, IgG1-Fab format; also called 15E3: Hf/Lg
B19: MY006-15E3 Fab Hf Lf (Fab, V domains shown)
VH: EVQLVESGGGLVQPGGSLRLSCAASGFKFSTFYMTWVRQAPGKGLEWVANIKQDGSEKDYLDSVRGRFTISRDNAKNSLYLQMNSLRAEDTAVYYCTRNGLQDSYSGDFFDHWGQGTLVTVSS
VL: QSVLTQPPSVSAAPGQKVTISCSGTGSNIGHNYVSWYQQLPGTAPKLLIYDNTKRPSGIPDRFSGSKSGTSATLGITGLQTGDEADYYCATWDADLSAVLFGGGTKLTVL
notes: as for B2

The target of the test is T1, Ara h 6 (Arachis hypogaea allergen 6) (Arachis hypogaea, UniProt Q647G9 22-145).
T1 construct: Peanut allergen; also called Ara h 6.0101; nAra h 6
T1 sequence: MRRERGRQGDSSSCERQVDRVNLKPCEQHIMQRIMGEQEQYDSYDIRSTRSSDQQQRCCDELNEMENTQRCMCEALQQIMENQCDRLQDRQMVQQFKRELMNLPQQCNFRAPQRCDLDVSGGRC
Description: ELISA, Fab titration on coated Ara h 6. Here is the method:
Next, the effect of the engineered variable regions on antigen binding was tested. Briefly, ELISA plates were coated with respective Ara h proteins (Ara h 2:0.05 ug/ml, Ara h 6:0.1 ug/ml, Ara h 3 loop (2nd): 0.1 ug/ml) overnight at 4° C. Afterwards, plates were blocked with BSA (2% in PBS) for 1 hour at room temperature. Fab fragment titration series starting from 4 ug/ml was prepared, added to the single ELISA plate wells and incubated for 2 h at room temperature. The read-out was performed by adding anti-hu-kappa/lambda-HRP (anti-kappa Invitrogen (A18853) and anti-lambda abcam (ab99811) for 1 h at room temperature. Tetramethylbenzidine substrate solution (TMB, Sigma-Aldrich Chemie GmbH, Buchs, Switzerland) was added, then after 5 minutes of hydrolysis time, the reaction was stopped by the addition of 1 M H₂SO₄ and the absorbances were read at 450 nm.
In the case of B1, the binding result was “binds”.

Turning to B2, the binding result is “binds”.

On to B3, for which the binding result was “binds”.

As to B4, the binding result is given as “binds”.

For B5, the binding result is on record as “binds”.

Regarding B6, the binding result is listed as “binds”.

Regarding B7, the binding result is “binds”.

Regarding B8, the binding result is reported as “binds”.

Turning to B9, the binding result was “binds”.

Regarding B10, the binding result is “binds”.

Turning to B11, the binding result is recorded as “binds”.

Turning to B12, the binding result is “binds”.

As to B13, the binding result is recorded as “binds”.

In the case of B14, the binding result is listed as “binds”.

Turning to B15, the binding result is listed as “binds”.

Take B16: the binding result is recorded as “binds”.

For B17, the binding result is recorded as “binds”.

For the molecule B18, the binding result is listed as “binds”.

For B19, the binding result is given as “binds”.
